Assay results as given in patent US20190076445A1 (UNIVERSITY OF CINCINNATI, published 2019).

T1: human FcϵRIα (human, UniProt P12319 26-257)
T1 construct: whole, on cells; also called huFcϵRIα
T1 sequence (looked up): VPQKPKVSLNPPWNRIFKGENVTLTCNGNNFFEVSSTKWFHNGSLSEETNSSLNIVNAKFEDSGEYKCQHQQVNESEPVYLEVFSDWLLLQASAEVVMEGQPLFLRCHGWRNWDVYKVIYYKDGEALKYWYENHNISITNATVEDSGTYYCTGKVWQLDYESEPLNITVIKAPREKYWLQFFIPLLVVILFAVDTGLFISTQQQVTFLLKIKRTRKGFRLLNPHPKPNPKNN


Molecular target: T1, human FcϵRIα
Assay: summary of Examples 1-7 (huFcϵRIα mice, peritoneal mast cells, flow cytometry)

Row | binding result | Binder
1 | binds | IB10 (antibody, V domains shown, mAb from a hybridoma (ATCC PTA-125116); also called anti-FcϵRIα monoclonal antibody IB10; anti-huFcϵRIα mAb) VH: QVQLQQPGAELVRPGASVKLSCKASGYSFTSYWMNWVNQRPGQGLEWIGMIHPSDSETRLNPNFKDRATLTVDKSSSTAYMQLSSPTSEDSAVYYCARGSLYDGYLFLYWGQGTLVTVSA VL: DIVMTQSPLSLPVSLGDQASISCRSSQSILHSNGDTYLEWYLQKPGQSPKLLIYKVSNRFSGVPDRFSGSGSGTDFTLKISRVEAEDLGVYYCFQGSYVPFTFGSGTKLEIKR
2 | binds | IE7 (antibody, mouse IgG1, V domains shown, Mouse IgG1 mAb from a hybridoma (ATCC PTA-125115); also called anti-FcϵRIα monoclonal antibody IE7; anti-huFcϵRIα mAb) VH: QVQLQESGGDVVKPGGSLKLSCAASGFTFSFYGMSWVRQTPDKKLEWVATISGGGNYTYYPDSVKGRFTISRDNAMNTLYLQMNSLKSEDTAMYYCVRAYYGNWNSYWGQGTLVTVS VL: DIVMTQTPSSMYASLGERVTITCKASQDINNYLSWFQQKPGRSPKTLIYRANRLMDGVPSRIRGSGSGQDYSLTISSLEYEDMGIYYCLLYNEFPWMFGGGTKLEIKR
